Values of other authors, collected in article PMC5488749.
Read-outs that look alike come from different tables or passages of the source.

How the values were obtained:
[1] = target: neurexin1 C-terminal peptide (Homo sapiens) (UniProt Q9ULB1)
[2] = target: Caspr4 C-terminal peptide (Homo sapiens) (UniProt Q9C0A0)
[3] = target: neurexin1 C-terminal peptide (Homo sapiens) (UniProt Q9ULB1); remark: listed apart in the source
[4] = target: Caspr4 C-terminal peptide (Homo sapiens) (UniProt Q9C0A0); remark: listed apart in the source

UniProt Q9ULB1, sequence (Q9ULB1 whole entry, looked up, tested part not stated): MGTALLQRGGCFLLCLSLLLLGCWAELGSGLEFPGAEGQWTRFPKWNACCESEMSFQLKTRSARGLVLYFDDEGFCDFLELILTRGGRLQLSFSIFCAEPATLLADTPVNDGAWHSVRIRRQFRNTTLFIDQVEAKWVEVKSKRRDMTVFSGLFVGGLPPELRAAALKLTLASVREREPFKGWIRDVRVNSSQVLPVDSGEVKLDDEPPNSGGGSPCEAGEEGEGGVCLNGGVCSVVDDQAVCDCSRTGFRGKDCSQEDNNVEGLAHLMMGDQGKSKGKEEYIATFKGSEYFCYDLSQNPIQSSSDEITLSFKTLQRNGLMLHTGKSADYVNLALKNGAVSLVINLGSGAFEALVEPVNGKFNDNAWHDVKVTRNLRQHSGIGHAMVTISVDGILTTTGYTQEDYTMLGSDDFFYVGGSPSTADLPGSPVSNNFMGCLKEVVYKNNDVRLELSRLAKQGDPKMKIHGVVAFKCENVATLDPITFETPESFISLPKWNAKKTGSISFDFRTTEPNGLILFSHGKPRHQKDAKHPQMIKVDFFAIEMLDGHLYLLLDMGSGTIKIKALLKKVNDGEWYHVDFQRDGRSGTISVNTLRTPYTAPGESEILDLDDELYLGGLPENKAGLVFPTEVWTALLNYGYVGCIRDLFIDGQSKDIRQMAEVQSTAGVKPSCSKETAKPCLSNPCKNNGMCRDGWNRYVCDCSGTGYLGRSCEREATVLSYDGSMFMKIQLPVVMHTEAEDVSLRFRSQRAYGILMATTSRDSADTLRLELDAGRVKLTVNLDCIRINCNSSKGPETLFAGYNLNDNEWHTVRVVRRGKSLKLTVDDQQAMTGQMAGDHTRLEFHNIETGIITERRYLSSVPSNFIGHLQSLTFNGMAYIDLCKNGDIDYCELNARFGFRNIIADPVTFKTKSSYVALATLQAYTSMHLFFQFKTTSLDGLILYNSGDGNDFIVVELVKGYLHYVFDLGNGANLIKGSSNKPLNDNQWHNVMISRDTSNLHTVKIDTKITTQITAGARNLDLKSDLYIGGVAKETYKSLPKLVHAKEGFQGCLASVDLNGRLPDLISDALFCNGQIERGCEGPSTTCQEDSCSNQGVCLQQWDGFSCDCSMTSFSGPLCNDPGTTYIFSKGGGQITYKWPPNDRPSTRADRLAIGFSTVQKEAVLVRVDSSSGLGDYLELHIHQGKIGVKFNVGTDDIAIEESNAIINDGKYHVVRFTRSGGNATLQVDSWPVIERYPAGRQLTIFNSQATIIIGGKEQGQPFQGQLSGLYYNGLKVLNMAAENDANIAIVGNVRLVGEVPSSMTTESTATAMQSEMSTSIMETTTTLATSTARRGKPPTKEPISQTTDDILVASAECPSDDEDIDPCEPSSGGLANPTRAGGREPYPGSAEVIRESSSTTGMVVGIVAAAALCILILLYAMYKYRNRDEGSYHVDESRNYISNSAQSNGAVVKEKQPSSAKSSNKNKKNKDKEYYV
UniProt Q9C0A0, sequence (Q9C0A0 whole entry, looked up, tested part not stated): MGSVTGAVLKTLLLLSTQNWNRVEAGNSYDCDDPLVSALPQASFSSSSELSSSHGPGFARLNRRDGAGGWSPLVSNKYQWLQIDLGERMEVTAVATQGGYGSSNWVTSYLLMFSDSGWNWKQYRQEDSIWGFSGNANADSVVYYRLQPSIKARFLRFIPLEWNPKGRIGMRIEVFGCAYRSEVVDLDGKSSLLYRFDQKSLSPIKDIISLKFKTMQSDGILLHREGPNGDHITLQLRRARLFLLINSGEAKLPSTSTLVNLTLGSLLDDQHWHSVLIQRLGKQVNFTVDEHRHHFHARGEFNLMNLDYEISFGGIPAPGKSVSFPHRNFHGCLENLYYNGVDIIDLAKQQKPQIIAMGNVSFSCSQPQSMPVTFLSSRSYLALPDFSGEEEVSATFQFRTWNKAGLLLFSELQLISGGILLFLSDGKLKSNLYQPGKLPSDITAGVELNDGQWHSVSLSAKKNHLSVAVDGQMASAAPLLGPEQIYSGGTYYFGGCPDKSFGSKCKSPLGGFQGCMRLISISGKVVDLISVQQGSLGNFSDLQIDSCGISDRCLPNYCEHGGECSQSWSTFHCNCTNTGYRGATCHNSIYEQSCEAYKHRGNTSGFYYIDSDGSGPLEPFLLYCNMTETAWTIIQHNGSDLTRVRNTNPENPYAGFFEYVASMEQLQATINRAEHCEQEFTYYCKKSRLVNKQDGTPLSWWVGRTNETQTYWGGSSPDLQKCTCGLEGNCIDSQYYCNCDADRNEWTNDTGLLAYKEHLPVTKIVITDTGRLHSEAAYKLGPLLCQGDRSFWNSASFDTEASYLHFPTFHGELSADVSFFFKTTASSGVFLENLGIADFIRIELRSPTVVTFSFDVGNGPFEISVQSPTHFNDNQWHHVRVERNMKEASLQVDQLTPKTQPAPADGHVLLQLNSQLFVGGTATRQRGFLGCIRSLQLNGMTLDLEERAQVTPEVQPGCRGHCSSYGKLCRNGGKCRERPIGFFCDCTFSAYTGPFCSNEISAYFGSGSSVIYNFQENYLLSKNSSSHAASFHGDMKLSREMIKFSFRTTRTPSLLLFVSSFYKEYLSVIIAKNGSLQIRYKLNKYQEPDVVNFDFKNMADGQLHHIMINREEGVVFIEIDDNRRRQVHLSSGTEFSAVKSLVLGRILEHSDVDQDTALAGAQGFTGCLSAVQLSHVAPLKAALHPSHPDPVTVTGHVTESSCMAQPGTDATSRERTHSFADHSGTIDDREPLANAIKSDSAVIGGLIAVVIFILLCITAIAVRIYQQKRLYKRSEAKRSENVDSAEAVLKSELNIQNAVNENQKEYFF

| Substance | Kd [1] [µM] | Kd [2] [µM] | Kd [3] [µM] | Kd [4] [µM] |
| --- | --- | --- | --- | --- |
| Tiam2 PDZ (from UniProt Q8IVF5) | 5 | 3 |  |  |
| Tiam1 PDZ (from UniProt Q13009) |  |  | 2400 | 18 |
